Reference: PMC7244016, “Knock-down of the TIM/TIPIN complex promotes apoptosis in melanoma cells” (Oncotarget, 2020)

Biological target: T1, Timeless (TIM), full length, FLAG-tagged (human, UniProt Q9UNS1 1-1208)
T1 construct: expressed from pcDNA4-Flag-Timeless; The plasmid is named Flag-Timeless; the results speak of a fused 3xFLAG-tag; also called flag-TIM; pcDNA4-Flag-Timeless
T1 sequence (looked up): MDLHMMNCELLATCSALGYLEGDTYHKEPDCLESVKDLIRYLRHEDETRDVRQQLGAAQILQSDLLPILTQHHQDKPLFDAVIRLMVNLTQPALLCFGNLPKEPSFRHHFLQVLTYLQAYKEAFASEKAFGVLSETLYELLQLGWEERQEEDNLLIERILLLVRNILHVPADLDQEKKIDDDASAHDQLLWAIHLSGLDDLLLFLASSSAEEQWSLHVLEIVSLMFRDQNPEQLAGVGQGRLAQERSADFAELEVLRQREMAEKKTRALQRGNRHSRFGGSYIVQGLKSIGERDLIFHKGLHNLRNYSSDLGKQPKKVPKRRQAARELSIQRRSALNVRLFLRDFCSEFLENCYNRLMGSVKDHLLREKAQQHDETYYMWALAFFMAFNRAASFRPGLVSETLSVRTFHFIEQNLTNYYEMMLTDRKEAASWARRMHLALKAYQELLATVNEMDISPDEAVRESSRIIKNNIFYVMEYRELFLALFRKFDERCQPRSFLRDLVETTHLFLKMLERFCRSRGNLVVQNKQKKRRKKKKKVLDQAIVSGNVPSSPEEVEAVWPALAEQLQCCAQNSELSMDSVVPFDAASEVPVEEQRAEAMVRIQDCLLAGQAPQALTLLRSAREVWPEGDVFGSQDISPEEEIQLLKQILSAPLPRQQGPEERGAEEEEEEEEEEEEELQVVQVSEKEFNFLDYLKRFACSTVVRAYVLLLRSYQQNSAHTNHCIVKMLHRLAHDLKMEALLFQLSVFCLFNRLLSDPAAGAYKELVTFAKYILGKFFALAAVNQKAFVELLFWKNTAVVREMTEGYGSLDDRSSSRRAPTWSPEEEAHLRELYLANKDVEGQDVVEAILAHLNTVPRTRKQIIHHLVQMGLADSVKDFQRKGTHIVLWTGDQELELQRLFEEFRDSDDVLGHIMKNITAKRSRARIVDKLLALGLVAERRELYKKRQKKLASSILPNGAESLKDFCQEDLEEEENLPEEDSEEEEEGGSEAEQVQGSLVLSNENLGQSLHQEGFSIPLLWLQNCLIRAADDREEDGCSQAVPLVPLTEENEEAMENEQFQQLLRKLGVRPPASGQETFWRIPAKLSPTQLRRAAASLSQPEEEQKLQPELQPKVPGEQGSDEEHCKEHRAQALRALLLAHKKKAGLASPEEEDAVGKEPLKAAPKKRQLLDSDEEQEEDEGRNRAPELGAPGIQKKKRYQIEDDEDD
Test: SEC; complex co-expressed in 293F cells and FLAG-purified; Superose 6 column in 50 mM HEPES pH 7.8, 150 mM NaCl, 0.5 mM TCEP; peak fractions checked by SDS-PAGE/Coomassie and immunoblot with TIM and TIPIN antibodies
Conditions: both partners purified

stoichiometry N: 1
B1: TIM-interacting protein (TIPIN), full length, FLAG-tagged (natural protein, human, UniProt Q9BVW5 1-301, looked up)
chain: MLEPQENGVIDLPDYEHVEDETFPPFPPPASPERQDGEGTEPDEESGNGAPVRVPPKRTVKRNIPKLDAQRLISERGLPALRHVFDKAKFKGKGHEAEDLKMLIRHMEHWAHRLFPKLQFEDFIDRVEYLGSKKEVQTCLKRIRLDLPILHEDFVSNNDEVAENNEHDVTSTELDPFLTNLSESEMFASELSRSLTEEQQQRIERNKQLALERRQAKLLSNSQTLGNDMLMNTPRAHTVEEVNTDEDQKEESNGLNEDILDNPCNDAIANTLNEEETLLDQSFKNVQQQLDATSRNITEAR
notes: expressed from pcDNA3-Flag-Tipin; also called flag-TIPIN; pcDNA3-Flag-Tipin
